Results taken from PMC12748766, “Structural basis for human chondroitin sulfate chain polymerization” (Nature Communications, 2025).
Changes are numbered by the printed parent chain.

Experiments:
Test in all cases: mass photometry; Refeyn OneMP; purified complexes diluted in 20 mM MES pH 6.5, 150 mM NaCl to around 25 nM
Conditions in all cases: both partners purified
[1] = target: T1, CHSY3^D261N/D263N, secreted construct aa157-aa882 (human, UniProt Q70JA7 157-882, D261N | D263N)
T1 construct: CHSY3, human, UniProt Q70JA7, residues 157-882, mutations in the DxD motif of the N-terminal GT domain; source: Freestyle 293-F cells, co-transfected with CHPF, secreted; purified by the same protocol as the wild-type complexes; not shown: SUMO, N-terminal, cleaved; His6, N-terminal, cleaved
T1 sequence (looked up): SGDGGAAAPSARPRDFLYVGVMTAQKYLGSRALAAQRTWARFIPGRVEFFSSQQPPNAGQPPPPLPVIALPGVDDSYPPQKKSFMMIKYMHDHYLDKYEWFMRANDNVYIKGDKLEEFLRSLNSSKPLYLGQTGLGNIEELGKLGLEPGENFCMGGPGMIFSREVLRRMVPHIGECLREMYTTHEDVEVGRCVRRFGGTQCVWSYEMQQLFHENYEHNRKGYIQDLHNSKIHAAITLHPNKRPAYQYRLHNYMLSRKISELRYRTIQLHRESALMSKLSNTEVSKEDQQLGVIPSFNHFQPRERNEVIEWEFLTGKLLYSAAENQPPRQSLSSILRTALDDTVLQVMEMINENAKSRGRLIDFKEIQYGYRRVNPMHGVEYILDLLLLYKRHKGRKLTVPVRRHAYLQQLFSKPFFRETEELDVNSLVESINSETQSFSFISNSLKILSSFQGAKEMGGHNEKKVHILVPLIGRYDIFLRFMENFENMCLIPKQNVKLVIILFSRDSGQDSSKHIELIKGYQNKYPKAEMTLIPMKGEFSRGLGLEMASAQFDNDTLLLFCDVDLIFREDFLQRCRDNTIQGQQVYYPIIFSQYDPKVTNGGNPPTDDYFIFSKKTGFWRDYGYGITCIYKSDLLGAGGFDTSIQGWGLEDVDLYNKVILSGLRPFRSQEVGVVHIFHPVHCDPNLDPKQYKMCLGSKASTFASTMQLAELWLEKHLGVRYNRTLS

[2] = target: T2, CHSY3^H394A, secreted construct aa157-aa882 (human, UniProt Q70JA7 157-882, H394A)
T2 construct: CHSY3, human, UniProt Q70JA7, residues 157-882, mutation in the N-terminal GT domain; source: Freestyle 293-F cells, co-transfected with CHPF, secreted; purified by the same protocol as the wild-type complexes; not shown: SUMO, N-terminal, cleaved; His6, N-terminal, cleaved
T2 sequence (looked up): T1 sequence (looked up) with N105D, N107D, H238A

[3] = target: T3, Chondroitin Sulfate Synthase-1 (CHSY1), secreted N-terminally truncated construct aa68-aa802 (human, UniProt Q86X52 68-802)
T3 construct: CHSY1, human, UniProt Q86X52, residues 68-802 (membrane-spanning helix removed); Construct in pHR-CMV-TetO2 with an N-terminal chicken RPTP sigma signal peptide, SUMO, 6x His and a 3C site; no cleavage site before the C-terminal Avi tag; source: Freestyle 293-F cells, co-transfected, secreted; purified from the supernatant (HisTrap, 3C protease, second HisTrap); not shown: SUMO, N-terminal, …
T3 sequence (looked up): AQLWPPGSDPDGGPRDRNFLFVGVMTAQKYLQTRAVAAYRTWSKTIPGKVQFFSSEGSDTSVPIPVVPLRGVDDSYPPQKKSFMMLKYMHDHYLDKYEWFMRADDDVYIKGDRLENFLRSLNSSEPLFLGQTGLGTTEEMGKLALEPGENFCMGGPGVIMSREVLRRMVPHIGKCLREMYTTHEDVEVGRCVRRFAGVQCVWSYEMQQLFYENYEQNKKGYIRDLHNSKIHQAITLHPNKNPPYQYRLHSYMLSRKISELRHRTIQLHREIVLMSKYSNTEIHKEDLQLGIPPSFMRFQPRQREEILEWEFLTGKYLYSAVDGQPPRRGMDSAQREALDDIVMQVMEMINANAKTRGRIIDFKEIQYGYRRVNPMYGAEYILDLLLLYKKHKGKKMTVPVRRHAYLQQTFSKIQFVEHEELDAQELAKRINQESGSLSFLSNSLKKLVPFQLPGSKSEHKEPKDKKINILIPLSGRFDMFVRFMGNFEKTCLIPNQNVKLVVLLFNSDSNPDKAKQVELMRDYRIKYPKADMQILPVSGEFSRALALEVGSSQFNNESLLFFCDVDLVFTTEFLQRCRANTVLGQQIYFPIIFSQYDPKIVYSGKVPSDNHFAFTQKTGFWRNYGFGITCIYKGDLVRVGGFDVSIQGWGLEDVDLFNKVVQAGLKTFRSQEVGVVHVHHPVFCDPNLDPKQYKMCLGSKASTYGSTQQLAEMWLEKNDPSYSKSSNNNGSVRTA

Measured: binding result

B1: Chondroitin Polymerizing Factor (CHPF), secreted N-terminally truncated construct aa81-aa775 (domain or fragment, human, UniProt Q8IZ52 81-775, looked up)
chain: GENWEPRVLPYHPAQPGQAAKKAVRTRYISTELGIRQRLLVAVLTSQTTLPTLGVAVNRTLGHRLERVVFLTGARGRRAPPGMAVVTLGEERPIGHLHLALRHLLEQHGDDFDWFFLVPDTTYTEAHGLARLTGHLSLASAAHLYLGRPQDFIGGEPTPGRYCHGGFGVLLSRMLLQQLRPHLEGCRNDIVSARPDEWLGRCILDATGVGCTGDHEGVHYSHLELSPGEPVQEGDPHFRSALTAHPVRDPVHMYQLHKAFARAELERTYQEIQELQWEIQNTSHLAVDGDQAAAWPVGIPAPSRPASRFEVLRWDYFTEQHAFSCADGSPRCPLRGADRADVADVLGTALEELNRRYHPALRLQKQQLVNGYRRFDPARGMEYTLDLQLEALTPQGGRRPLTRRVQLLRPLSRVEILPVPYVTEASRLTVLLPLAAAERDLAPGFLEAFATAALEPGDAAAALTLLLLYEPRQAQRVAHADVFAPVKAHVAELERRFPGARVPWLSVQTAAPSPLRLMDLLSKKHPLDTLFLLAGPDTVLTPDFLNRCRMHAISGWQAFFPMHFQAFHPAVAPPQGPGPPELGRDTGRFDRQAASEACFYNSDYVAARGRLAAASEQEEELLESLDVYELFLHFSSLHVLRAVEPALLQRYRAQTCSARLSEDLYHRCLQSVLEGLGSRTQLAMLLFEQEQGNST
notes: CHPF, human, UniProt Q8IZ52, residues 81-775 (membrane-spanning helix removed); Construct in pHR-CMV-TetO2 with an N-terminal chicken RPTP sigma signal peptide, SUMO, 6x His and a 3C site; a second 3C site stands before the C-terminal twin streptavidin tag; also called Chondroitin sulfate synthase 2; source: Freestyle 293-F cells, co-transfected, secreted; purified from the supernatant (HisTrap, …)
binds: [1] | [2] | [3]
